Source: paper PMC5729022
One block for each substance: values may come before it.

Columns and labels:
[1] = target: network soluble collagen type IV from human placenta (human) (UniProt P02462)
[2] = target: insoluble microfibrillar collagen type I from bovine Achilles tendon, Col I(S) (bovine) (UniProt P02453)
[3] = target: insoluble microfibrillar collagen type I from bovine skin, Col I(D) (bovine) (UniProt P02453)
[4] = target: soluble fibrillar collagen type II from bovine tracheal cartilage (bovine) (UniProt P02459)
Sequence of UniProt P02459 (P02459 182-1241): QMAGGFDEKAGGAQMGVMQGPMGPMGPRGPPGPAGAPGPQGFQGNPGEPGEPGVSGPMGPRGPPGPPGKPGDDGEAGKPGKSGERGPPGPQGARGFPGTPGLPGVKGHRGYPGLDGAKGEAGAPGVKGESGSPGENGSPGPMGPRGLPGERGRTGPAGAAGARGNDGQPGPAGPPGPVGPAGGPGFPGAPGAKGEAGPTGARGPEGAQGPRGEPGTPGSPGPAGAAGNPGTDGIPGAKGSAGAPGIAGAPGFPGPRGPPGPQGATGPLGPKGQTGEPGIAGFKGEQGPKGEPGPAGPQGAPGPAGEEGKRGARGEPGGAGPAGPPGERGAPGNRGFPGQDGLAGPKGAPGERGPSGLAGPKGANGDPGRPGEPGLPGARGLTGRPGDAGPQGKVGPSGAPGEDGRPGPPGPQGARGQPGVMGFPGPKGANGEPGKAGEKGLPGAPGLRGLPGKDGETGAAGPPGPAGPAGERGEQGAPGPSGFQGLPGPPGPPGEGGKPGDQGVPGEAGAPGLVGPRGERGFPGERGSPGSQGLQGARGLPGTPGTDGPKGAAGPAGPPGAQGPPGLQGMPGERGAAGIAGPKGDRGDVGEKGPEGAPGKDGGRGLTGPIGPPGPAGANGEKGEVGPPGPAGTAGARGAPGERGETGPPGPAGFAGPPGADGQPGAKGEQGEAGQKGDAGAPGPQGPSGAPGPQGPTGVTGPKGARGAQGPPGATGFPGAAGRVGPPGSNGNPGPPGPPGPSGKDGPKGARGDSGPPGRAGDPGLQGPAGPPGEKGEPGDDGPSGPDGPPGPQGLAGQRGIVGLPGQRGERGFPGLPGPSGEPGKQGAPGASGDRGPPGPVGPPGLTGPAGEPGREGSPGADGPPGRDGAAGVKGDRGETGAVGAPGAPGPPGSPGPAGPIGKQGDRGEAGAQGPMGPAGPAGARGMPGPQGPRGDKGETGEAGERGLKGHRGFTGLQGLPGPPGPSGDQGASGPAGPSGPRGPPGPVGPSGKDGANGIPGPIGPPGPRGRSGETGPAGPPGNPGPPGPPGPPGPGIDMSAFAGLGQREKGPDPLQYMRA

[5] = target: soluble fibrillar collagen type III from human placenta (human) (UniProt P02461)
Sequence of UniProt P02461 (P02461 154-1221): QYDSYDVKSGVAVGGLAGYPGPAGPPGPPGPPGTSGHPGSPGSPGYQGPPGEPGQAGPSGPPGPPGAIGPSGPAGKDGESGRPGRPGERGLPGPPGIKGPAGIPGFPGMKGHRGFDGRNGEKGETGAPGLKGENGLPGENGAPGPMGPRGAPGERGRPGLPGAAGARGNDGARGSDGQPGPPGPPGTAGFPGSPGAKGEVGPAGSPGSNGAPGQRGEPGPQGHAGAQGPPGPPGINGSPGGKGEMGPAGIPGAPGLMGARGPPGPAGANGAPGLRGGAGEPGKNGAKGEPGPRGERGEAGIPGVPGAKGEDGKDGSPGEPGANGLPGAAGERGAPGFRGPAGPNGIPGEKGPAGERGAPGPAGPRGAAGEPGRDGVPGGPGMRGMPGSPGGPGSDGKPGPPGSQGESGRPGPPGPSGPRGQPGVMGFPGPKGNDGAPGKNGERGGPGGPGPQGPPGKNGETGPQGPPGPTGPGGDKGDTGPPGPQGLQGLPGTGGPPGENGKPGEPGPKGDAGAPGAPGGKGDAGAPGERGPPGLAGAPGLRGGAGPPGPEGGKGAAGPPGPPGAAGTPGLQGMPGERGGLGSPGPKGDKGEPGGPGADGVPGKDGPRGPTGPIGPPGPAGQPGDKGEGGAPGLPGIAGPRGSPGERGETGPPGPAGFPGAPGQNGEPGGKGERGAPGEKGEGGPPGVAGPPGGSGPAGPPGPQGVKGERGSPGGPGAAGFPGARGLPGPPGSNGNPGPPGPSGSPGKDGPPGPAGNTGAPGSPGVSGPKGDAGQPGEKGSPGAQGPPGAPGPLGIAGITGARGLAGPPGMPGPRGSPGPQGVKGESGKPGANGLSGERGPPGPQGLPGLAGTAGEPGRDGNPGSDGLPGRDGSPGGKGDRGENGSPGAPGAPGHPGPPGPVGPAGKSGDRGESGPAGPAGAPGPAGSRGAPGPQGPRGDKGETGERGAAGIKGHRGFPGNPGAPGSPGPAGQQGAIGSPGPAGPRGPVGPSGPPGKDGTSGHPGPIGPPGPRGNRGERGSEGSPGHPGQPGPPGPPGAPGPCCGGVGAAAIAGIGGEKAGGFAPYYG

- percent of C2C12 cells transfected with human integrin α1 adhering to the collagen coating, 5 mM Mg2+, LDH assay, 1 × 10^5 cells/ml [1]: 51.9%
Substance: recombinant human integrin α1 I domain (GST fusion) (from UniProt P56199 169-363) (domain or fragment)

- percent of C2C12 cells transfected with human integrin α2 adhering to the collagen coating, 5 mM Mg2+, LDH assay, 1 × 10^5 cells/ml [2]: 44.2%
- percent of HT1080 cells (endogenous human α2β1) adhering to the collagen coating, 5 mM Mg2+, LDH assay, 1 × 10^5 cells/ml [2]: 45.6%
- percent of C2C12 cells transfected with human integrin α2 adhering to the collagen coating, 5 mM Mg2+, LDH assay, 1 × 10^5 cells/ml [3]: 36.5%
- percent of HT1080 cells (endogenous human α2β1) adhering to the collagen coating, 5 mM Mg2+, LDH assay, 1 × 10^5 cells/ml [3]: 43.6%
- percent of C2C12 cells transfected with human integrin α2 adhering to the collagen coating, 5 mM Mg2+, LDH assay, 1 × 10^5 cells/ml [1]: 16.1%
- percent of HT1080 cells (endogenous human α2β1) adhering to the collagen coating, 5 mM Mg2+, LDH assay, 1 × 10^5 cells/ml [1]: 24.7%
- percent of C2C12 cells transfected with human integrin α2 adhering to the collagen coating, 5 mM Mg2+, LDH assay, 1 × 10^5 cells/ml [4]: 23.9%
- percent of HT1080 cells (endogenous human α2β1) adhering to the collagen coating, 5 mM Mg2+, LDH assay, 1 × 10^5 cells/ml [4]: 40.3%
- percent of C2C12 cells transfected with human integrin α2 adhering to the collagen coating, 5 mM Mg2+, LDH assay, 1 × 10^5 cells/ml [5]: 18.5%
- percent of HT1080 cells (endogenous human α2β1) adhering to the collagen coating, 5 mM Mg2+, LDH assay, 1 × 10^5 cells/ml [5]: 28.1%
Substance: recombinant human integrin α2 I domain (GST fusion) (domain or fragment)

- percent of Rugli cells (endogenous rat α1β1) adhering to the collagen coating, 5 mM Mg2+, LDH assay, 1 × 10^5 cells/ml [2]: 22.8%
- percent of Rugli cells (endogenous rat α1β1) adhering to the collagen coating, 5 mM Mg2+, LDH assay, 1 × 10^5 cells/ml [3]: 27%
- percent of Rugli cells (endogenous rat α1β1) adhering to the collagen coating, 5 mM Mg2+, LDH assay, 1 × 10^5 cells/ml [1]: 64.1%
- percent of Rugli cells (endogenous rat α1β1) adhering to the collagen coating, 5 mM Mg2+, LDH assay, 1 × 10^5 cells/ml [4]: 18.9%
- percent of Rugli cells (endogenous rat α1β1) adhering to the collagen coating, 5 mM Mg2+, LDH assay, 1 × 10^5 cells/ml [5]: 55.6%
Substance: recombinant rat integrin α1 I domain (GST fusion) (domain or fragment)
